The test addresses M3R-YFP (muscarinic acetylcholine receptor M3 with YFP fused C-terminally) (UniProt P20309). Briefly: FRET or BRET; single-cell FRET in HEK293T cells transfected with M3R-YFP, Gαq, Gβ1 and mTurquoise2-Gγ2; laminar superfusion with buffer (137 mM NaCl, 5.4 mM KCl, 2 mM CaCl2, 1 mM MgCl2, 10 mM HEPES, pH 7.3) or agonist (ACh 30 µM, Metha, Fur, Are, Guva, Pilo, Mda one after the other in the same cell); amplitudes normalized to ACh; room temperature. On the technique in general: Bioluminescence resonance energy transfer reports proximity on the nanometre scale.
UniProt P20309, sequence (P20309 whole entry, the tested form may be a part): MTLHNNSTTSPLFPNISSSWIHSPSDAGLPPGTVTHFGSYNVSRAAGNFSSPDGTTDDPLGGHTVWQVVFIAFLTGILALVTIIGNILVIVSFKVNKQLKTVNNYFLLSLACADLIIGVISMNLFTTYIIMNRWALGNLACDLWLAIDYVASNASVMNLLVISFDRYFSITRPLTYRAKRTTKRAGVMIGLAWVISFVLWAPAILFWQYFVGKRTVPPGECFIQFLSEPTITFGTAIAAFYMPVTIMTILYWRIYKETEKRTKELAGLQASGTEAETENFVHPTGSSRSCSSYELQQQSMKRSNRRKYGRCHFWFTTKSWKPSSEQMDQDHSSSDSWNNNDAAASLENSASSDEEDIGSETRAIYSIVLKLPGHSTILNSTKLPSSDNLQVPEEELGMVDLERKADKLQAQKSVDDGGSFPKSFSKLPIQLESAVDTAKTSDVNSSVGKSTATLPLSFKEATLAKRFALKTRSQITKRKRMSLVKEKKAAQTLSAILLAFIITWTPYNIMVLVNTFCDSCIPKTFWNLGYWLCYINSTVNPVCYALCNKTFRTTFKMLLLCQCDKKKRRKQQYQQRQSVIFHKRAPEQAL

Substance “Gq protein (Gαq, Gβ1 and mTurquoise2-Gγ2) (from UniProt P50148 1-359; P62873 1-340; P59768 1-71) (complex; other documents disagree on this pair)” showed an FRET amplitude with Are as agonist, relative to ACh (% of the ACh signal) of 20; an FRET amplitude with Fur as agonist, relative to ACh (% of the ACh signal) of 60; an FRET amplitude with Guva as agonist, relative to ACh (% of the ACh signal) of 20; an FRET amplitude with Mda as agonist, relative to ACh (% of the ACh signal) of 8. Further, the FRET amplitude with Metha as agonist, relative to ACh (% of the ACh signal) worked out at 60 and the FRET amplitude with Pilo as agonist, relative to ACh (% of the ACh signal) amounted to 8.
